B1: DCAF4 (parent)
chain: TTKCVRQYEGHVNEYAYLPLHVHE

Variants of: B1
Assay: protein stability index of a GFP-peptide fusion (GPS, HEK-293T) (PSI 1-6); higher = more stable
Details: c terminus: a fixed tail appended
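Further: lentivirally expressed fusions sorted by FACS into six bins by GFP to DsRed ratio, PSI derived from sequencing read proportions per bin multiplied by bin number.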

**Q.** Which protein stability index does the source give for TTKCVRQYEGHVNEYKYLPLHVHE [A16K] here?
**A.** 2.71

**Q.** For TTKCVRQYEGHVNEYFYLPLHVHE [A16F], which protein stability index is on record?
**A.** 2.32

**Q.** With TTKCVRQYEGHVNEYIYLPLHVHE [A16I] as the variant, how does the protein stability index read?
**A.** 2.2

**Q.** Which protein stability index does the source give for TTKCVRQYEGHVNEYCYLPLHVHE [A16C] here?
**A.** 2.44

**Q.** With TTKCVRQYEGHVNEYGYLPLHVHE [A16G] as the variant, how does the protein stability index read?
**A.** 2.13

**Q.** For TTKCVRQYEGHVNEYHYLPLHVHE [A16H], which protein stability index is on record?
**A.** 3.05

**Q.** For TTKCVRQYEGHVNEYEYLPLHVHE [A16E], which protein stability index is on record?
**A.** 3.31

**Q.** Which protein stability index does the source give for TTKCVRQYEGHVNEYDYLPLHVHE [A16D] here?
**A.** 2.54

**Q.** For TTKCVRQEEGHVNEYAYLPLHVHE [Y8E], which protein stability index is on record?
**A.** 4.03

**Q.** For TTKCVRQNEGHVNEYAYLPLHVHE [Y8N], which protein stability index is on record?
**A.** 3.31

**Q.** Which protein stability index does the source give for TTKCVRQKEGHVNEYAYLPLHVHE [Y8K] here?
**A.** 3.52

**Q.** Which protein stability index does the source give for TTKCVRQLEGHVNEYAYLPLHVHE [Y8L] here?
**A.** 2.79

**Q.** For TTKCVRQGEGHVNEYAYLPLHVHE [Y8G], which protein stability index is on record?
**A.** 3.12

**Q.** With TTKCVRQIEGHVNEYAYLPLHVHE [Y8I] as the variant, how does the protein stability index read?
**A.** 2.82

**Q.** For TTKCVRQQEGHVNEYAYLPLHVHE [Y8Q], which protein stability index is on record?
**A.** 3.39

**Q.** Which protein stability index does the source give for TTKCVRQTEGHVNEYAYLPLHVHE [Y8T] here?
**A.** 3.15

**Q.** With TTKCVRQWEGHVNEYAYLPLHVHE [Y8W] as the variant, how does the protein stability index read?
**A.** 2.42

**Q.** Which protein stability index does the source give for TTKCVRQPEGHVNEYAYLPLHVHE [Y8P] here?
**A.** 2.42

**Q.** With TTKCVRQHEGHVNEYAYLPLHVHE [Y8H] as the variant, how does the protein stability index read?
**A.** 2.64

**Q.** Which protein stability index does the source give for TTKCVRQSEGHVNEYAYLPLHVHE [Y8S] here?
**A.** 3.19

**Q.** With TTKCVRQAEGHVNEYAYLPLHVHE [Y8A] as the variant, how does the protein stability index read?
**A.** 2.65

**Q.** For TTKCVRQCEGHVNEYAYLPLHVHE [Y8C], which protein stability index is on record?
**A.** 2.66

**Q.** Which protein stability index does the source give for TTKCVRQVEGHVNEYAYLPLHVHE [Y8V] here?
**A.** 3.17

**Q.** Which protein stability index does the source give for TTKCVRQFEGHVNEYAYLPLHVHE [Y8F] here?
**A.** 2.69

**Q.** With TTKCVRQDEGHVNEYAYLPLHVHE [Y8D] as the variant, how does the protein stability index read?
**A.** 3.75

**Q.** Which protein stability index does the source give for TTKCVRQREGHVNEYAYLPLHVHE [Y8R] here?
**A.** 2.94

**Q.** With TTKCVRQMEGHVNEYAYLPLHVHE [Y8M] as the variant, how does the protein stability index read?
**A.** 2.89

**Q.** With TTKCVRQYEGIVNEYAYLPLHVHE [H11I] as the variant, how does the protein stability index read?
**A.** 2.75

**Q.** Which protein stability index does the source give for TTKCVRQYEGYVNEYAYLPLHVHE [H11Y] here?
**A.** 2.84

**Q.** With TTKCVRQYEGCVNEYAYLPLHVHE [H11C] as the variant, how does the protein stability index read?
**A.** 2.1

**Q.** For TTKCVRQYEGPVNEYAYLPLHVHE [H11P], which protein stability index is on record?
**A.** 3.25

**Q.** With TTKCVRQYEGLVNEYAYLPLHVHE [H11L] as the variant, how does the protein stability index read?
**A.** 1.95

**Q.** With TTKCVRQYEGFVNEYAYLPLHVHE [H11F] as the variant, how does the protein stability index read?
**A.** 1.88

**Q.** For TTKCVRQYEGWVNEYAYLPLHVHE [H11W], which protein stability index is on record?
**A.** 1.81

**Q.** Which protein stability index does the source give for TTKCVRQYEGEVNEYAYLPLHVHE [H11E] here?
**A.** 3.17

**Q.** With TTKCVRQYEGDVNEYAYLPLHVHE [H11D] as the variant, how does the protein stability index read?
**A.** 2.88

**Q.** With TTKCVRQYEGTVNEYAYLPLHVHE [H11T] as the variant, how does the protein stability index read?
**A.** 3.25

**Q.** With TTKCVRQYEGVVNEYAYLPLHVHE [H11V] as the variant, how does the protein stability index read?
**A.** 3.56

**Q.** With TTKCVRQYEGAVNEYAYLPLHVHE [H11A] as the variant, how does the protein stability index read?
**A.** 2.7

**Q.** With TTKCVRQYEGKVNEYAYLPLHVHE [H11K] as the variant, how does the protein stability index read?
**A.** 2.66

**Q.** Which protein stability index does the source give for TTKCVRQYEGMVNEYAYLPLHVHE [H11M] here?
**A.** 2.26

**Q.** Which protein stability index does the source give for TTKCVRQYEGGVNEYAYLPLHVHE [H11G] here?
**A.** 2.38

**Q.** For TTKCVRQYEGNVNEYAYLPLHVHE [H11N], which protein stability index is on record?
**A.** 2.96

**Q.** Which protein stability index does the source give for TTKCVRQYEGQVNEYAYLPLHVHE [H11Q] here?
**A.** 2.53

**Q.** For TTKCVRQYEGRVNEYAYLPLHVHE [H11R], which protein stability index is on record?
**A.** 2.44

**Q.** For TTKCVRQYEGSVNEYAYLPLHVHE [H11S], which protein stability index is on record?
**A.** 2.6

**Q.** Which protein stability index does the source give for TTKCVRQYEGHVNEDAYLPLHVHE [Y15D] here?
**A.** 3.36

**Q.** For TTKCVRQYEGHVNESAYLPLHVHE [Y15S], which protein stability index is on record?
**A.** 3.28

**Q.** Which protein stability index does the source give for TTKCVRQYEGHVNEHAYLPLHVHE [Y15H] here?
**A.** 3.02

**Q.** With TTKCVRQYEGHVNENAYLPLHVHE [Y15N] as the variant, how does the protein stability index read?
**A.** 2.88

**Q.** With TTKCVRQYEGHVNEFAYLPLHVHE [Y15F] as the variant, how does the protein stability index read?
**A.** 3.08

**Q.** With TTKCVRQYEGHVNELAYLPLHVHE [Y15L] as the variant, how does the protein stability index read?
**A.** 2.97

**Q.** For TTKCVRQYEGHVNEMAYLPLHVHE [Y15M], which protein stability index is on record?
**A.** 2.96

**Q.** With TTKCVRQYEGHVNEEAYLPLHVHE [Y15E] as the variant, how does the protein stability index read?
**A.** 3.6

**Q.** For TTKCVRQYEGHVNEKAYLPLHVHE [Y15K], which protein stability index is on record?
**A.** 2.85

**Q.** For TTKCVRQYEGHVNETAYLPLHVHE [Y15T], which protein stability index is on record?
**A.** 2.59

**Q.** With TTKCVRQYEGHVNEIAYLPLHVHE [Y15I] as the variant, how does the protein stability index read?
**A.** 3.09

**Q.** For TTKCVRQYEGHVNEPAYLPLHVHE [Y15P], which protein stability index is on record?
**A.** 3.51

**Q.** With TTKCVRQYEGHVNEAAYLPLHVHE [Y15A] as the variant, how does the protein stability index read?
**A.** 3.57

**Q.** For TTKCVRQYEGHVNEQAYLPLHVHE [Y15Q], which protein stability index is on record?
**A.** 3.32

**Q.** With TTKCVRQYEGHVNEVAYLPLHVHE [Y15V] as the variant, how does the protein stability index read?
**A.** 3

**Q.** With TTKCVRQYEGHVNERAYLPLHVHE [Y15R] as the variant, how does the protein stability index read?
**A.** 3.43

**Q.** For TTKCVRQYEGHVNEGAYLPLHVHE [Y15G], which protein stability index is on record?
**A.** 3.84

**Q.** For TTKCVRQYEGHVNEWAYLPLHVHE [Y15W], which protein stability index is on record?
**A.** 2.12

**Q.** Which protein stability index does the source give for TTKCVRQYEGHVNECAYLPLHVHE [Y15C] here?
**A.** 3.56

**Q.** Which protein stability index does the source give for TTKCVRTYEGHVNEYAYLPLHVHE [Q7T] here?
**A.** 2.97

**Q.** For TTKCVRFYEGHVNEYAYLPLHVHE [Q7F], which protein stability index is on record?
**A.** 1.87

**Q.** For TTKCVRNYEGHVNEYAYLPLHVHE [Q7N], which protein stability index is on record?
**A.** 2.54

**Q.** Which protein stability index does the source give for TTKCVRCYEGHVNEYAYLPLHVHE [Q7C] here?
**A.** 2.15

**Q.** With TTKCVRDYEGHVNEYAYLPLHVHE [Q7D] as the variant, how does the protein stability index read?
**A.** 2.8

**Q.** With TTKCVRRYEGHVNEYAYLPLHVHE [Q7R] as the variant, how does the protein stability index read?
**A.** 2.28

**Q.** Which protein stability index does the source give for TTKCVRHYEGHVNEYAYLPLHVHE [Q7H] here?
**A.** 2.64

**Q.** Which protein stability index does the source give for TTKCVRPYEGHVNEYAYLPLHVHE [Q7P] here?
**A.** 2.06

**Q.** For TTKCVRLYEGHVNEYAYLPLHVHE [Q7L], which protein stability index is on record?
**A.** 2.28

**Q.** With TTKCVRIYEGHVNEYAYLPLHVHE [Q7I] as the variant, how does the protein stability index read?
**A.** 2.17

**Q.** With TTKCVRVYEGHVNEYAYLPLHVHE [Q7V] as the variant, how does the protein stability index read?
**A.** 2.24

**Q.** Which protein stability index does the source give for TTKCVRWYEGHVNEYAYLPLHVHE [Q7W] here?
**A.** 1.88

**Q.** Which protein stability index does the source give for TTKCVRGYEGHVNEYAYLPLHVHE [Q7G] here?
**A.** 2.13

**Q.** Which protein stability index does the source give for TTKCVRAYEGHVNEYAYLPLHVHE [Q7A] here?
**A.** 2.52

**Q.** Which protein stability index does the source give for TTKCVREYEGHVNEYAYLPLHVHE [Q7E] here?
**A.** 2.96

**Q.** For TTKCVRYYEGHVNEYAYLPLHVHE [Q7Y], which protein stability index is on record?
**A.** 1.79

**Q.** With TTKCVRSYEGHVNEYAYLPLHVHE [Q7S] as the variant, how does the protein stability index read?
**A.** 2.75

**Q.** For TTKCVRKYEGHVNEYAYLPLHVHE [Q7K], which protein stability index is on record?
**A.** 2.77

**Q.** Which protein stability index does the source give for TTKCVRMYEGHVNEYAYLPLHVHE [Q7M] here?
**A.** 2.19

**Q.** For TTKCVRQYEGHVNHYAYLPLHVHE [E14H], which protein stability index is on record?
**A.** 2.05

**Q.** For TTKCVRQYEGHVNQYAYLPLHVHE [E14Q], which protein stability index is on record?
**A.** 2.35

**Q.** With TTKCVRQYEGHVNLYAYLPLHVHE [E14L] as the variant, how does the protein stability index read?
**A.** 1.63

**Q.** For TTKCVRQYEGHVNWYAYLPLHVHE [E14W], which protein stability index is on record?
**A.** 1.14

**Q.** With TTKCVRQYEGHVNTYAYLPLHVHE [E14T] as the variant, how does the protein stability index read?
**A.** 2.23

**Q.** For TTKCVRQYEGHVNMYAYLPLHVHE [E14M], which protein stability index is on record?
**A.** 1.43

**Q.** Which protein stability index does the source give for TTKCVRQYEGHVNAYAYLPLHVHE [E14A] here?
**A.** 1.85

**Q.** Which protein stability index does the source give for TTKCVRQYEGHVNKYAYLPLHVHE [E14K] here?
**A.** 2.64

**Q.** Which protein stability index does the source give for TTKCVRQYEGHVNNYAYLPLHVHE [E14N] here?
**A.** 2.47

**Q.** With TTKCVRQYEGHVNDYAYLPLHVHE [E14D] as the variant, how does the protein stability index read?
**A.** 2.79
